First the molecules themselves.
B1: Natural cytotoxicity triggering receptor 3 (Homo sapiens), O14931 (parent)
chain: MAWMLLLILIMVHPGSCALWVSQPPEIRTLEGSSAFLPCSFNASQGRLAIGSVTWFRDEVVPGKEVRNGTPEFRGRLAPLASSRFLHDHQAELHIRDVRGHDASIYVCRVEVLGLGVGTGNGTRLVVEKEHPQLGAGTVLLLRAGFYAVSFLSVAVGSTVYYQGKCLTWKGPRRQLPAVVPAPLPPPCGSSAHLLPPVPGG
partner: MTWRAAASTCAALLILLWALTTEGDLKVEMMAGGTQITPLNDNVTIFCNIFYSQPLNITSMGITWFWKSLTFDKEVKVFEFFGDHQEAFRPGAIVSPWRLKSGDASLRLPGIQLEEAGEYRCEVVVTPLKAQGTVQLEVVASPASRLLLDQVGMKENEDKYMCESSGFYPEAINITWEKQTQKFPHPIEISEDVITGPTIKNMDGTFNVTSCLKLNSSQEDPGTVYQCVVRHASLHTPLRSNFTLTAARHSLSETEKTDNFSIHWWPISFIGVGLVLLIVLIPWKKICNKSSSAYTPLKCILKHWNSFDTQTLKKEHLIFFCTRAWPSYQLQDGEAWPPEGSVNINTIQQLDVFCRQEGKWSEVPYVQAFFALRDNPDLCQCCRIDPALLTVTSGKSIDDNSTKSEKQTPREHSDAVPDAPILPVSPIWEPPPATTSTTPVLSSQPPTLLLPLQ

The variants in the assay derive from B1. The settings on record: with nr3l1_human NCR3LG1, Q68D85.
Consider MAWMLLLILIMVHPGSCALWVSQPPEIRTLEGSSAFLPCSFNASQGRLAIGSVTWFRDEVVPGKEVRNGTPEFRGRLAPLASSRFLHDHQAELHIRDVRGHDASIYVCEVRVAGLGVGTGNGTRLVVEKEHPQLGAGTVLLLRAGFYAVSFLSVAVGSTVYYQGKCLTWKGPRRQLPAVVPAPLPPPCGSSAHLLPPVPGG [R109E;E111R;L113A], for which the “effect of a mutation on the interaction” value is on record as “decreasing interaction strength”.

As for MAWMLLLILIMVHPGSCALWVSQPPEIRTLEGSSAFLPCSFNASQGRLAAGAVTWFRDEVVPGKEVRNGTPEFRGRLAPLASSRFLHDHQAELHIRDVRGHDASIYVCRVEVLGLGVGTGNGTRLVVEKEHPQLGAGTVLLLRAGFYAVSFLSVAVGSTVYYQGKCLTWKGPRRQLPAVVPAPLPPPCGSSAHLLPPVPGG [I50A;S52A], the “effect of a mutation on the interaction” value was “decreasing interaction strength”.

With MAWMLLLILIMVHPGSCALWVSQPPEIRTLEGSSAFLPCSFNASQGRLAIGSVTWFRDEVVPGKEVRNGTPEFRGRLAPLASSRFLHDHQAELHIRDVRGHDASIYVCSVSVAGLGVGTGNGTRLVVEKEHPQLGAGTVLLLRAGFYAVSFLSVAVGSTVYYQGKCLTWKGPRRQLPAVVPAPLPPPCGSSAHLLPPVPGG [R109S;E111S;L113A], the “effect of a mutation on the interaction” value is reported as “decreasing interaction strength”.

For the variant MAWMLLLILIMVHPGSCALWVSQPPEIRTLEGSSAFLPCSFNASQGRLAIGSVTWFRDEVVPGKSVSNGTPEFRGRLAPLASSRFLHDHQAELHIRDVRGHDASIYVCRVEVLGLGVGTGNGTRLVVEKEHPQLGAGTVLLLRAGFYAVSFLSVAVGSTVYYQGKCLTWKGPRRQLPAVVPAPLPPPCGSSAHLLPPVPGG [E65S;R67S], the “effect of a mutation on the interaction” value is “decreasing interaction strength”.

The values above are taken from IntAct's records for PubMed 21444796.
